# According to patent US7838495B2, “Compositions and methods of use of EPB1, and ErbB3 binding protein” (University of Maryland, Baltimore, priority 2007, dated 2010):
# Key:
# LNCaP cells [1] = assay: LNCaP xenografts in SCID mice; type: in vivo
# Experimental: In Vivo Studies in SCID Mice: Male SCID mice, 4-6 weeks of age, were purchased from the National Cancer Institute (Frederick, Md.). Animals were housed in a pathogen-free environment under controlled conditions of light and humidity and received food and water ad libitum. LNCaP cells were grown in complete medium and 800 μg/ml of G418 until 80% confluent. Cells were scraped into phosphate-buffered saline (PBS), collected by centrifugation, and suspended in Matrigel™ (10 mg/ml) (Collaborative Research, Waltham, Mass.) at 1×10^7 cells/ml. Each mouse received s.c. injections at one site on each flank with 100 μl of cell suspension. Tumors were measured three times a week with calipers, and tumor volumes were calculated by the formula 0.5236×r1^2×r2 (r1<r2). The animal protocols were approved by the Institutional Animal Care and Use Committee at the University of Maryland.
# After sacrifice, tumors were excised and fixed in 10% buffered neutral formalin. Sections of formalin-fixed, paraffin-embedded tissues were cut to 5 μm. Slides were stained with an EPB1 antibody (Upstate) diluted 1:50 using the standard avidin-biotin method (Vector Labs, Burlinghame, Calif.). Peroxidase activity was localized by the diaminobenzidine tetrachloride peroxidase reaction with Harris hematoxylin as a counterstain.
# LNCaP cells [2] = assay: Growth response of LNCaP vector controls and EBP1 transfectants to DHT and bicalutamide; type: cell-based, human; conditions: LNCaP EBP1 transfectants (vector controls approximately 70%)
# Experimental: Cell Growth Assays: To measure growth in complete media, cells (2×10^4) were seeded in triplicate in individual wells of 12-well tissue culture plates in RPMI-1640 with 10% FBS and cultured for the indicated number of days. Cells were trypsinized, stained with Trypan Blue (0.4%), and counted in a hemacytometer. For soft agar growth assays, increasing concentrations of cells (as indicated) were plated in 35 mm Petri dishes in complete media and 0.3% Difco Bacto Agar over an 0.5% agar layer. Colonies were counted after 10 days of incubation. For studies assessing the effect of dihydrotestosterone (DHT) on cell growth, cells (2×10^4) were plated in 12-well plates in complete media. After a 24-hour attachment period, the medium was replaced with steroid-free medium [phenol red-free RPMI 1640 and 5% charcoal-stripped FBS (Sigma)] for 48 hours. The final concentration of testosterone in the steroid-reduced media was less than 5 pM. After 48 hours of steroid depletion, cells were re-fed with fresh steroid-reduced medium with or without the indicated concentrations of DHT and/or bicalutamide (10 μM), and total cell numbers were assessed 7 days later.
# C81 cells = assay: HRG-induced growth of C81 transfectants; type: cell-based, human; conditions: ectopic expression of EBP1, androgen-free media
# Experimental: FIG. 6A-C. EBP1 overexpression inhibits the response to HRG A. EBP1 and vector control transfected cells were plated in complete media at 5×10^3 cells/well for one day. The next day, cells were switched to steroid reduced-media and HRG added at the indicated concentrations. Total cell numbers were determined seven days later by MTT assay. Each point represents mean±S.E. of 6 wells. Data is representative of three experiments. B. AKT activation in response to HRG C81-EBP1 or vector control cells were serum starved overnight and then treated with HRG (20 ng/ml) for the indicated times (mm). Cell lysates were immunoblotted with antibody to phospho-AKT or total AKT as indicated. C. […]
# Western Blot Analysis. […] For soft agar growth assays, increasing concentrations of cells (as indicated) were plated in 35 mm Petri dishes in 0.3% agar in complete media and colonies were counted after 10 days of incubation (21). […] Relative cell growth was determined using a Promega Proliferation Reagent (Promega, Madison Wis.) as per manufacturer's instructions with absorbance being read at […] using a Dynex plate reader. […] Luciferase activity was determined using the Promega Dual luciferase assay kit as described by the manufacturer. […] Tumors were measured with calipers. Tumor volumes were calculated by the formula width^2×length/2 […]. Mean tumor volume±S.D. were calculated and plotted against time. […]
molecule,measurement,setting,value
"EBP1: ErbB3 binding protein (SEQ ID NO: 2), AR corepressor, here ectopically expressed in cancer cells by stable transfection of an expression plasmid (protein, listed as Homo sapiens, FLAG tag) MSGEDEQQEQTIAEDLVVTKYKMGGDIANRVLRSLVEASSSGVSVLSLCEKGDAMIMEETGKIFKKEKEMKKGIAFPTSISVNNCVCHFSPLKSDQDYILKEGDLVKIDLGVHVDGFIANVAHTFVVDVAQGTQVTGRKADVIKAAHLCAEAALRLVKPGNQNTQVTEAWNKVAHSFNCTPIEGMLSHQLKQHVIDGEKTIIQNPTDQQKKDHEKAEFEVHEVYAVDVLVSSGEGKAKDAGQRTTIYKRDPSKQYGLKMKTSRAFFSEVERRFDAMPFTLRAFEDEKKARMGVVECAKHELLQPFNVLYEKEGEFVAQFKFTVLLMPNGPMRITSGPFEPDLYKSEMEVQDAELKALLQSSASRKTQKKKKKKASKTAENATSGETLEENEAGD",inoculation sites with tumors on day 20,LNCaP cells [1]; EBP1-transfected LNCaP s.c. in SCID mice (vector controls 35%),10%
same,sites that developed tumors at the end of the study,"LNCaP cells [1]; EBP1-transfected LNCaP s.c. in SCID mice (vector more than 85%), p=0.04",less than 40%
same,average tumor volume at the end of the study,"LNCaP cells [1]; EPB1-transfected LNCaP in SCID mice (vector 1214±168), p=0.0003",268±70 mm^3
same,tumor growth rate,"LNCaP cells [1]; EPB1 transfectants vs vector, all time points, p=0.0001",slower
same,growth inhibition by the withdrawal of androgens,LNCaP cells [2],60%
same,ability of C81 cells to grow in response to HRG,C81 cells,completely abrogated
